In patent US20120244165A1 (published 2012):
No end group written: not given here.

Tests used:
[1] = biological target: T1, peptide 12-20 with alanine at aa 16 (A16) (also: biotinylated (position not given here)); experiment: ELISA on biotinylated peptides on streptavidin plates
T1 construct: Second library; the entry already carries the alanine
T1 peptide: VHHQALVFF
Procedure: (§1) Epitope mapping of the monoclonal antibody mACI-01-Ab7 C2 was performed by ELISA using three different peptide libraries. One library comprises a total of 33 biotinylated peptides covering the complete amino acid (aa) sequence of Aβ1-42 (produced by Mimotopes and purchased from ANAWA Trading SA), the second library contains biotinylated peptides using peptide 12 (aa12-20 of Aβ) from the first peptide library and substituting each amino acid in the sequence by an alanine (see table 41 below), and the third library contains biotinylated peptides 13, 14, or 15 (aa 13-21, 14-22 or 15-23 of Aβ) and substituting in each case the last amino acids to an alanine or to a glycine for aa 21 which is already an alanine (see table 5 below). A biotinylated complete Aβ1-42 peptide was used as positive control (Bachem). Epitope mapping was done according to the manufacturer's (Mimotopes) instructions. Briefly, Streptavidin coated plates (NUNC) were blocked with 0.1% BSA in PBS overnight at 4° C. After washing with PBS-0.05% Tween 20, plates were coated for 1 hour at RT with the different peptides from the library, diluted in 0.1% BSA, 0.1% Sodium Azide in PBS to a final concentration of 10 μM. After washing, plates were incubated for 1 hour at RT with the mACI-01-Ab7 C2 antibody or an isotype control mouse IgG2b antibody, diluted to 10 μg/ml in 2% BSA, 0.1% Sodium Azide in PBS. Plates were washed again and incubated with alkaline phosphatase conjugated goat anti mouse IgG for 1 h at RT. After final washing, plates were incubated with phosphatase substrate (pNPP) and read at 405 nm using an ELISA plate reader.
(§2) It was shown that the monoclonal antibody mACI-01-Ab7 C2 bound specifically to peptides 12, 13, 14 and 15 of the first peptide library. […] A second library with alanine substitutions was used to determine the critical aa for binding to peptide 12-20 ([…]) (SEQ ID NO: 29).

[2] = biological target: T2, peptide 12-20 with alanine at aa 17 (A17) (also: biotinylated (position not given here)); experiment: as above
T2 construct: Second library; the entry already carries the alanine
T2 peptide: VHHQKAVFF
Procedure: as §1, §2

[3] = biological target: T3, peptide 12-20 with alanine at aa 19 (A19) (also: biotinylated, position not given here); experiment: as above
T3 construct: Second library; the entry already carries the alanine
T3 peptide: VHHQKLVAF
Procedure: as §1, §2

[4] = biological target: T4, peptide 12-20 with alanine at aa 20 (A20) (also: biotinylated, position not given here); experiment: as above
T4 construct: Second library; the entry already carries the alanine
T4 peptide: VHHQKLVFA
Procedure: as §1, §2

Aβ1-42 fibers = biological target: T5, Aβ1-42 fibers (UniProt P05067 672-713); experiment: binding affinity ELISA on plates coated with amyloid, alkaline phosphatase anti-mouse IgG detection
T5 construct: domain: Aβ1-42; Aggregated, fibrillar state of Aβ1-42 (incubated for days at 37 °C); number of peptide copies not defined; also called Amyloid 1-42 fibrils; fibrillar Aβ1-42
T5 sequence (P05067 672-713 limits assumed): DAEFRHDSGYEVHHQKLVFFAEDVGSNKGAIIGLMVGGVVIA
Procedure: (§3) In order to evaluate the specificity of mACI-01-Ab7 C2 to different stages of polymerized amyloid protein, monomeric and polymeric soluble amyloid, particularly, amyloid β (Aβ) protein, and fibrillic amyloid, an ELISA coated with these different stages of polymeric beta-amyloid was performed. Monomers were prepared according to a modified method published by⁷, polymeric soluble amyloid, particularly, amyloid β (Aβ) according to⁸, whereas fibers were performed by incubation of amyloid (Bachem, Switzerland) with a final concentration of 1 μg/μl in Tris/HC1 pH 7.4 at 37° C. for 5 days followed by a centrifugation step (10,000 rpm for 5 minutes). Then amyloid polymers were coated on an ELISA plates with a final concentration of […] and binding affinity ELISA by using an anti-mouse IgG monoclonal antibody (Jackson ImmunoResearch Laboratories, Inc.) labelled with alkaline phosphate was performed.

Aβ1-42 monomers = biological target: T6, Aβ1-42 monomers (UniProt P05067 672-713); experiment: as above
T6 construct: domain: Aβ1-42; Unlabelled monomeric preparation (HFIP film, DMSO, PBS); also called Amyloid monomers; Aβ1-42 monomeric peptide
T6 sequence (P05067 672-713 limits assumed): as above
Procedure: as §3

Aβ1-42 oligomers = biological target: T7, Aβ1-42 oligomers (UniProt P05067 672-713); experiment: as above
T7 construct: domain: Aβ1-42; Soluble oligomeric preparation (SDS-induced); number of copies not defined; also called amyloid oligomers; polymeric soluble amyloid β (Aβ) protein
T7 sequence (P05067 672-713 limits assumed): as above
Procedure: as §3

IC50 (Aβ1-42 fibers): 5.27 nM
IC50 (Aβ1-42 monomers): 8.3 nM
IC50 (Aβ1-42 oligomers): 2.53 nM
B1: mACI-01-Ab7 C2 (antibody, mouse IgG2b, kappa, V domains shown)
VH: EVQLVESGGGLVQPGGSLKLSCAASGFTFSSYGMSWVRQTPDKRLELVASINSNGGSTYYPDSVKGRFTISRDNAKNTLYLQMSSLKSEDTAMYYCASGDYWGQGSTLTVSS
VL: DVVMTQTPLSLPVSLGDQASISCRSSQSLVYSNGDTYLHWYLQKPGQSPKLLIYKVSNRFSGVPDRFSGSGSGTDFTLKISRVEAEDLGVYFCSQSTHVPWTFGGGTKLEIKR
notes: also called mC2; Mouse C2
binding result [1]: no binding (tested: antibody at 10 µg/ml)
binding result [2]: no binding (tested: antibody at 10 µg/ml)
binding result [3]: no binding (tested: antibody at 10 µg/ml)
binding result [4]: no binding (tested: antibody at 10 µg/ml)
